Results from patent US20250084163A1 (SORRENTO THERAPEUTICS, published 2025).

Columns and labels:
[1] = molecular target: T1, Human ROR1 protein (UniProt Q01973-1) (human, UniProt Q01973 30-937); test: flow cytometry on A549, Raji and MCF7 cells (ROR1+)
T1 construct: Endogenous ROR1 of human tumour cell lines; also called ROR1 on A549, Raji (RAJI) and MCF7 cells; cognate antigen expressed at the surface of cells
Experimental: Flow cytometry was used to test antibody binding to adenocarcinomic human alveolar basal epithelial cell line A549 (ROR1+), Burkitt's lymphoma cell line RAJI (ROR1+), breast cancer cell line (ROR1+), A549 ROR1-KO cell line (ROR1 knockout) which is ROR1 negative, and Duke's type B adenocarcinoma cell line LS174T (ROR1 negative).
The cells were re-suspended in 120 µL/well of FACS buffer containing Goat anti-human IgG AF647 (1:2,000, Southern Biotech, Cat No. 2040-31, Lot No. D1817-T817C) and plate was incubated for 20 minutes at 4° C. in the dark.
FIGS. 4A-E show anti-human ROR1 antibodies RO6D8-s10, RO6D8-jlv1011, RO6A-a7gm and RO6A-a8gm binding to ROR1-expressing A549 (FIG. 4A), Raji (FIG. 4B), and MCF7 (FIG. 4C) cells; and ROR1 negative A549 ROR1-KO (FIG. 4D) and LS174T (FIG. 4E) cells.

[2] = molecular target: T2, Recombinant truncated human his-tag ROR1 Ig-like domain (human, UniProt Q01973 39-151); test: ELISA, antibody coated at 5 ug/mL, his-tagged antigen at 2 ug/ml, anti-his HRP
T2 construct: also called human his-tag ROR1 Ig-like domain C-his; human ROR1 Ig-like domain
T2 sequence (Q01973 other isoform, or with tags, fused parts or gaps limits assumed): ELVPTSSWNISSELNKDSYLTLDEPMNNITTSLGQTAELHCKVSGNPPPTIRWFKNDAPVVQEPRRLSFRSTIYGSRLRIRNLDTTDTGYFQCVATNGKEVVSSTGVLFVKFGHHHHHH
Experimental: (§1) Cross-reactivity of the anti-human ROR1 antibodies with his-tagged ROR1 recombinant protein from human and mouse, were analyzed by ELISA assay. The antibodies 5 μg/mL (RO6D8wt, RO6D8-s10, RO6D8-glv1011, RO6D8-jlv1011, RO6D8-1v1011) were diluted with PBS buffer and coated on a plate at 50 μL per well or control buffers coated on a plate at 50 μL per well. The plate was washed three times with 150 μL/well of PBS-T (PBSIX supplemented with 0.05% Tween 20). Subsequently, the plate was blocked with 100 μL/well of blocking buffer (blocker Casein in PBS from Bioworld, Cat. No. 40320020-2) for 1 hour at RT. The plates were washed 3 times with 150 μL/well of PBS-T, after blocking. Recombinant mouse his-tag ROR1, 2 μg/ml (Acro Biosystems Cat. No. RO1-M5221, Lot: 1201-48ESI-65), human his-tag ROR1 extracellular domain (SEQ ID NO:2), 1 μg/ml (Acro Biosystems Cat. No. RO1-H522Y, lot: C81-76KF1-FR), human his-tag ROR1 Ig-like domain C-his, 2 μg/ml (Acro Biosystems Cat. No. RO1-H5221, Lot: B311-59SSI-CA), human his-tag CD138, 2 μg/ml (Sino Cat. No. 11429-H08H, Lot: LCL07NO0412) (negative control antibody), and Casein/PBS buffer (control). 30 μl of his-tagged ROR1 antigen, his tagged CD138 or Casein/PBS buffer were added to the plate, per well, and incubated for 1 hour at room temperature. The plate was washed three times with 150 μL/well of PBS-T and anti 6x-his (SEQ ID NO:58) tag antibody HRP (Abcam; Cat. No. Ab1187) was incubated at dilution 1:5,000, 30 μL/well for 1 hour at RT. […] The signal was stopped at the desired saturation point by using 15 μL/well of 2 N sulfuric acid (H₂SO₄) stop solution and read on a plate reader at 450 nm.

[3] = molecular target: T1, Human ROR1 protein (UniProt Q01973-1); test: flow cytometry on A549 cells (ROR1+)
Experimental: Flow cytometry was used to test antibody binding to adenocarcinomic human alveolar basal epithelial cell line A549 (ROR1+) and immortalized line of human T lymphocyte cell line Jurkat (ROR1 negative), using various anti-ROR1 antibodies. The cells were prepared at concentration of 1×10⁶/ml in FACS buffer (PBS, 2% FBS, and 0.05% azide). Cells were plated at 30 μl/well in a V-bottom 96-well plate. Anti-ROR1 antibodies (with RO6D8wt used as control) were diluted in FACS buffer (5X serial dilution starting from 50 μg/ml) and 30 μl was added to each well with either A549 or Jurkat cells for 60 min on ice. After incubation, the cells were centrifuged at 2000 rpm for 5 minutes, flip out supernatant. After 1 wash with 200 μL/well of FACS buffer, cells were incubated with an AF647 goat anti-human Fab2 antibody (Jackson ImmunoResearch; Cat. No. 109-606-088) (dilution 1:2000 in FACS buffer) at 50 μL/well for 40 min on ice. After incubation, the cells were centrifuged at 2000 rpm for 5 minutes, flip out supernatant. After 1 wash with 200 μL/well of FACS buffer cells were resuspended in 30 μl of FACS buffer and acquired by flow cytometry using IntelliCyt readout.

[4] = molecular target: T3, Recombinant truncated human his-tag ROR1 extracellular domain protein (human, UniProt Q01973 30-403); test: SPR (Biacore T200), antibody captured by anti-human Fc, his-tagged ROR1 ECD as analyte
T3 construct: the tag is part of the entry; also called his-tagged ROR1 protein; human ROR1 ECD
T3 sequence (Q01973 other isoform, or with tags, fused parts or gaps limits assumed): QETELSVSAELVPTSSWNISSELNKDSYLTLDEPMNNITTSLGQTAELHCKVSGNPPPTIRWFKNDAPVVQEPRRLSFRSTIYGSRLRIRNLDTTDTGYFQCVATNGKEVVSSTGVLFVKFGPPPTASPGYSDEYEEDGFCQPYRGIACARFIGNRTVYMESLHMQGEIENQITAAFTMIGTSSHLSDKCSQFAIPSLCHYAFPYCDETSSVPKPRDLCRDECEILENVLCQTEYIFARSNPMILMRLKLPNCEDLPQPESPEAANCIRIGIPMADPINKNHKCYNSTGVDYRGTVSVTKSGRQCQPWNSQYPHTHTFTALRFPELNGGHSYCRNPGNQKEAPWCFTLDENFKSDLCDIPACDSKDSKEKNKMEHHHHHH
Experimental: Binding kinetics of anti-ROR1 antibodies with his-tagged ROR1 protein were measured using surface plasmon resonance (SPR). The anti-ROR1 antibodies tested included proprietary antibodies RO6D8 wt, RO6D8-s10, RO6D8-jlv1011, and RO6D8-011. Anti-human fragment crystallizable region (Fc region) antibody was immobilized on a CM5 sensor chip to approximately 8,000 RU using standard N-hydroxysuccinimide/N-Ethyl-N′-(3-dimethylaminopropyl) carbodiimide hydrochloride (NHS/EDC) coupling methodology. The anti-ROR1 antibodies (1-2 μg/mL) were captured for 60 seconds at a flow rate of 10 μL/minute. The his-tagged ROR1 protein included amino acid 30 to amino acid 403 of SEQ ID NO: 1 (i.e., SEQ ID NO:2) (Acro Biosystems; Cat. No. RO1-H522Y). This polypeptide was serially diluted in a running buffer of 0.01 M HEPES pH 7.4, 0.15 M NaCl, 3 mM EDTA, 0.05% v/v Surfactant P20 (HBS-EP+) and run at 6 different dilutions. All measurements were conducted in HBS-EP+ buffer with a flow rate of 30 μL/minute. A 1:1 (Langmuir) binding model was used to fit the data. All BIACORE assays were performed at room temperature using Biacore T200 surface plasmon resonance (GE Healthcare).

[5] = molecular target: T3, Recombinant truncated human his-tag …; test: ELISA, antibody coated at 5 ug/mL, his-tagged antigen at 1 ug/ml, anti-his HRP
Experimental: as §1, with “(control).” for “(control). 30 μl of his-tagged ROR1 antigen, his tagged CD138 or Casein/PBS buffer were added to the plate, per well, and incubated for 1 hour at room temperature. The plate was washed three times with 150 μL/well of PBS-T and anti 6x-his (SEQ ID NO:58) tag antibody HRP (Abcam; Cat. No. Ab1187) was incubated at dilution 1:5,000, 30 μL/well for 1 hour at RT.”

T1 sequence (Q01973 30-937 limits assumed, one chain of several): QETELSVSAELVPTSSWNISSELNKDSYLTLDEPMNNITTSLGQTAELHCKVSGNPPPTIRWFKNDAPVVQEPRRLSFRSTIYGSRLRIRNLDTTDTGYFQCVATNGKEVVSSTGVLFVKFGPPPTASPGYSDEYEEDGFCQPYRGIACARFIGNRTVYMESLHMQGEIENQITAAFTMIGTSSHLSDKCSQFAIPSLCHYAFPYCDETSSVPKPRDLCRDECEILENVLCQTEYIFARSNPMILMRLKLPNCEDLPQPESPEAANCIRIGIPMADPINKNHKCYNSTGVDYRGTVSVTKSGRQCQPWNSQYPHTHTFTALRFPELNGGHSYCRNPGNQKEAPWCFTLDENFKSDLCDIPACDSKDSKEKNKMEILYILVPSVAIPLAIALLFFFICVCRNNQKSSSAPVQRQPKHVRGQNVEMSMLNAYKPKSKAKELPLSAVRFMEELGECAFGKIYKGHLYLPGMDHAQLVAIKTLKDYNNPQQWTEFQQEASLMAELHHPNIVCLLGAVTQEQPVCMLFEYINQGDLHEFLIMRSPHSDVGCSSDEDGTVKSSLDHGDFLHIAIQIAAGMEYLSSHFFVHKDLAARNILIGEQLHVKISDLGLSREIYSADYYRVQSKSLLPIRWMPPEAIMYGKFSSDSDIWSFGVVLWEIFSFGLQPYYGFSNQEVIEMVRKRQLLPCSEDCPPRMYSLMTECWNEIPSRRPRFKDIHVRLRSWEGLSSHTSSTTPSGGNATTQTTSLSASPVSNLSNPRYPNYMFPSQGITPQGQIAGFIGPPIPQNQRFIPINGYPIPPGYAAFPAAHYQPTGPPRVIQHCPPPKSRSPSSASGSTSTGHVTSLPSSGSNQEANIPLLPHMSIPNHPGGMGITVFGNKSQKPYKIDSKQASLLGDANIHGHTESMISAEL

B1: RO6A-a8gm (antibody, V domains shown)
VH: QVQLVESGGGLVKPGGSLRLSCAASGFTFSDYYMTWIRQAPGKGLEWVSYISGSSAYSNYADSVKGRFTISRDNSKNTLYLQMNSLRAEDTAVYYCARDPLLYGWLTDWGQGTLVTVSS
VL: QSALTQPASVSGSPGQSITISCTGTSSDGGGYDSVSWYQQHPGKAPKLMIYDVNKRPSGVSGRFSGSKSGNTASLTISGLQAEDEADYYCSSFTSDVMVFGGGTKLTVL
notes: it was detected with goat anti-human IgG and compared with an IgG1 isotype control
B1: binds [1].

B2: RO6D8-s10 (antibody, V domains shown)
VH: QVQLVQSGAEVKKPGASVKVSCKASGYTFTNYYMHWVRQAPGQGLEWMGIINPSGGSTSYAQKFQGRVTMTRDTSTSTVYMELSSLRSEDTAVYYCARSSRSSYYLWVLDLWGQGTTVTVSS
VL: AIQMTQSPSSLSASVGDRVTITCRASQGVSTEIAWYQQKPGKAPKLLIYAASSLQSGVPSRFSGSGSGTDFTLTISSLQPEDFATYYCQQFNSYPITFGQGTRLEIK
B2: binds [2]; binds [3]; binds [4].

B3: RO6D8-jlv1011 (antibody, V domains shown)
VH: QVQLVQSGAEVKKPGASVKVSCKASGYTFTSKYYHWVRQAPGQGLEWMGIINPTSGSTSYAQKFQGRVTMTRDTSTSTVYMELSSLRSEDTAVYYCARDSSRYSGWYFDLWGQGTTVTVSS
VL: AIQLTQSPSSLSASVGDRVTITCRASQGVSTEIAWYQQKPGKAPKLLIYAASSLQSGVPSRFSGSGSGTDFTLTISSLQPEDFATYYCQQYYGYPIAFGQGTRLEIK
B3: binds [2]; binds [3]; binds [4].

B4: RO6D8-011 (antibody, V domains shown)
VH: QVQLVQSGAEVKKPGASVKVSCKASGYTFTNYYMHWVRQAPGQGLEWMGIINPTSGRTSYAQKFQGRVTMTRDTSTSTVYMELSSLRSEDTAVYYCARDSSSWYSGWYFDLWGQGTTVTVSS
VL: AIQMTQSPSSLSASVGDRVTITCRASQGIRTDLAWYQQKPGKAPKLLIYAASSLQSGVPSRFSGSGSGTDFTLTISSLQPEDFATYYCQQYYGYPIAFGQGTRLEIK
notes: it was captured by an anti-human Fc antibody in SPR; also called RO6D8-O11
B4: binds [4].

B5: RO6D8wt (antibody, V domains shown)
VH: QVQLVQSGAEVKKPGASVKVSCKASGYTFTNYYMHWVRQAPGQGLEWMGIINPSGGSTSYAQKFQGRVTMTRDTSTSTVYMELSSLRSEDTAVYYCARDSSSWYSGWYFDLWGQGTTVTVSS
VL: AIQMTQSPSSLSASVGDRVTITCRASQDVRAHLAWYQQKPGKAPKLLIYAASSLQSGVPSRFSGSGSGTDFTLTISSLQPEDFATYYCQQFNSYPITFGQGTRLEIK
notes: it was captured by an anti-human Fc antibody in SPR, so it carries a human Fc; also called wildtype anti-human ROR1 antibody
B5: binds [2]; binds [3]; binds [5].
